Target: T1, Flag-tagged FANCJ N734H (human, UniProt Q9BX63 1-1249, N734H)
T1 construct: FANCJ (BRIP1), human, full-length; missense variant found in uterine endometrial carcinoma; source: HEK 293T, transiently transfected, purified (anti-Flag M2 agarose)
T1 sequence (looked up): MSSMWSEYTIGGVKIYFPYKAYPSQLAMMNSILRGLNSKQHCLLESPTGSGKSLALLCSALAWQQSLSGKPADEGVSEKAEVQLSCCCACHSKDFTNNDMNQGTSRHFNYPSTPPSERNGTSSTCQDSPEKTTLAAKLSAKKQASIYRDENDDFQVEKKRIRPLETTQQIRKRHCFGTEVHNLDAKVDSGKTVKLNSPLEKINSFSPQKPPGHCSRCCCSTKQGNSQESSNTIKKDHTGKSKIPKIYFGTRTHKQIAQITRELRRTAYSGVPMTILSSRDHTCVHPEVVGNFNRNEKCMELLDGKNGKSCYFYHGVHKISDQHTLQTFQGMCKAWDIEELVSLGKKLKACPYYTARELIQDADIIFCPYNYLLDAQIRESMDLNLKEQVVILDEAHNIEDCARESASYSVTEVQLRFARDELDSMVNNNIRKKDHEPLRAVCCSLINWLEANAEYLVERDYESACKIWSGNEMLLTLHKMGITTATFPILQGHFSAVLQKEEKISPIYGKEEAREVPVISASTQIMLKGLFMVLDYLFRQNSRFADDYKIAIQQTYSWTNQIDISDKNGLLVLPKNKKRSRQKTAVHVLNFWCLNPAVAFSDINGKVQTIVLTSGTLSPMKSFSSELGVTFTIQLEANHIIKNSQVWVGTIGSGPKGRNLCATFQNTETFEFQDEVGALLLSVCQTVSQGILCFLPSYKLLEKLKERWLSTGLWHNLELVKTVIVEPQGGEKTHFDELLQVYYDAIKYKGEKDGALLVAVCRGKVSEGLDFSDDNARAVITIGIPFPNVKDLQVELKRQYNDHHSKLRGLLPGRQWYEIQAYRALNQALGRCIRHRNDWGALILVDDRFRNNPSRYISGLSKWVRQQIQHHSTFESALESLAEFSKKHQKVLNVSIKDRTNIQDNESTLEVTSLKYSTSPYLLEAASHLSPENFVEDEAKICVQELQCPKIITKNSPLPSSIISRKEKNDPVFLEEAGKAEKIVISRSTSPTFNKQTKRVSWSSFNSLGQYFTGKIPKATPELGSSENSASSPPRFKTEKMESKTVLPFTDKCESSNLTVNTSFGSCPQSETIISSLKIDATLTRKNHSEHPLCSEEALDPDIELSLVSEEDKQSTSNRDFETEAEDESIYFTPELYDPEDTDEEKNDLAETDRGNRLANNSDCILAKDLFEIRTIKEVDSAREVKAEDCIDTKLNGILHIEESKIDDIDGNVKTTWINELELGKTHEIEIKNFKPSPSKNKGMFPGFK
Test: pull-down; GST-SepB α-helix bundle (0.5 µg) on Glutathione Sepharose 4B beads, purified Flag-FANCJ (0.5 µg) added; 25 mM Tris-HCl pH 7.5, 150 mM NaCl, 0.1% Triton X-100, 4 °C; washes with 300 mM NaCl, 1% Triton X-100; Western blot
Settings: both partners purified

B1: GST-SepB α-helix bundle WT (domain or fragment, human, UniProt O75717 718-824, looked up)
chain: IATEKGQMEEQFWRSVIFHNHLDYLAKNGYEYEESTKNQATKEQQELLMKMLALSCKLEREFRCVELADLMTQNAVNLAIKYASRSRKLILAQKLSELAVEKAAELT
notes: AND-1 (WDHD1), human, α-helix bundle of the SepB domain, amino-acid residues 718-824; Cloned into pGEX-2T; also called GST-SepB α-helix bundle chimeric protein; source: E. coli Rosetta pLysS (DE3), purified (Glutathione Sepharose 4B)
  binding result: binds

From article PMC10897178, “FANCJ DNA helicase is recruited to the replisome by AND-1 to ensure genome stability” (EMBO Reports, 2024)
